Laboratory results published in paper PMC7322011.

Test: plasma membrane level, fixed-cell imaging
Details: glycan lost; control: wild type

B1: peripheral myelin protein 22 (PMP22): N41Q (protein)
parent chain: MLLLLLSIIVLHVAVLVLLFVSTIVSQWIVGNGHATDLWQNCSTSSSGNVHHCFSSSPNEWLQSVQATMILSIIFSILSLFLFFCQLFTLTKGGRFYITGIFQILAGLCVMSAAAIYTVRHPEWHLNSDYSYGFAYILAWVAFPLALLSGVIYVILRKRE
With B1 as the protein, how does the localisation_or_trafficking read?
The localisation_or_trafficking was “increases”.
